Experiment [1] deals with T1, vaccinia-expressed E1E2 complex, isolate HCV-1 (genotype 1a) (hepatitis C virus, isolate HCV-1, UniProt P26664 192-383; P26664 384-746). The experiment is described as follows: competition ELISA on HCV-1 E1E2; competitor m32 (AP320).
Experiment [2] addresses T1, vaccinia-expressed E1E2 complex, …. Description: competition ELISA on HCV-1 E1E2; competitor m19 (CBH-4B).
Experiment [3] has the same target. The experiment is described as follows: competition ELISA on HCV-1 E1E2; competitor m1 (AR1A).
Experiment [4] has as its target T2, E1E2 complex of HCV isolate H77 (genotype 1a), wild type (HCV isolate H77, UniProt P27958 192-383; P27958 384-746). Description: competition ELISA on H77 E1E2; competitor m44 (Fab P2).
In experiment [5] the target is T2, E1E2 complex of HCV isolate H77 …. Description: competition ELISA on H77 E1E2; competitor m45 (Fab P3).
Experiment [6] shares this target. The experiment is described as follows: competition ELISA on H77 E1E2; competitor m38 (Fab N2).
The target is the same in experiment [7]. Description: competition ELISA on H77 E1E2; competitor m40 (Fab N4).
Experiment [8] deals with T1, vaccinia-expressed E1E2 complex, …. Description: competition ELISA on HCV-1 E1E2; competitor m5 (AR3B).
The target in experiment [9] is E1E2 (Env) of HCV isolate UKN5.15.7 (genotype 5) on HCVpp (hepatitis C virus, isolate UKN5.15.7). Description: cell-based or functional assay.
Experiment [10] has as its target E1E2 (Env) of HCV isolate OH8 (genotype 1b) on HCVpp (hepatitis C virus, isolate OH8). The experiment is described as follows: cell-based or functional assay.
In experiment [11] the target is E1E2 (Env) of HCV isolate UKN2A1.2 (genotype 2a) on HCVpp (hepatitis C virus, isolate UKN2A1.2). The experiment is described as follows: cell-based or functional assay.
Experiment [12] has as its target E1E2 (Env) of HCV isolate UKN1B12.16 (genotype 1b) on HCVpp (hepatitis C virus, isolate UKN1B12.16). Description: cell-based or functional assay.
In experiment [13] the target is E1E2 (Env) of HCV isolate J6 (genotype 2a) on HCVpp (hepatitis C virus, isolate J6, UniProt P26660 192-383; P26660 384-750). Description: cell-based or functional assay.
The target in experiment [14] is E1E2 (Env) of HCV isolate UKN2B1.1 (genotype 2b) on HCVpp (hepatitis C virus, isolate UKN2B1.1). Description: cell-based or functional assay.
The target of experiment [15] is E1E2 (Env) of HCV isolate UKN4.21.16 (genotype 4) on HCVpp (hepatitis C virus, isolate UKN4.21.16). The experiment is described as follows: cell-based or functional assay.
For experiment [16], the target named is E1E2 (Env) of HCV isolate H (genotype 1a) on HCVpp (hepatitis C virus, isolate H). The experiment is described as follows: cell-based or functional assay.
Experiment [17] concerns the target T2, E1E2 complex of HCV isolate H77 …. Description: cell-based or functional assay.
Experiment [18] has as its target T1, vaccinia-expressed E1E2 complex, …. Description: competition ELISA on HCV-1 E1E2; competitor m6 (AR3C).
Experiment [19] addresses T2, E1E2 complex of HCV isolate H77 …. The experiment is described as follows: competition ELISA on H77 E1E2; competitor m43 (Fab P1a).
For a further experiment, the target named is H77 E1E2 mutant G530A (HCV isolate H77, UniProt P27958 192-383; P27958 384-746). Description: ELISA, alanine mutant E1E2.
In another experiment the target is H77 E1E2 mutant P484A (HCV isolate H77, UniProt P27958 192-383; P27958 384-746). Description: ELISA, alanine mutant E1E2.
The target of experiment [20] is T1, vaccinia-expressed E1E2 complex, …. Description: competition ELISA on HCV-1 E1E2; competitor m28 (1/39).
Experiment [21] shares this target. The experiment is described as follows: competition ELISA on HCV-1 E1E2; competitor m20 (CBH-2).
Experiment [22] has as its target T2, E1E2 complex of HCV isolate H77 …. The experiment is described as follows: competition ELISA on H77 E1E2; competitor m39 (Fab N3).

A value given as a limit tells only on which side of the number the result lay.

B1: MAb AR3D (antibody, V domains shown)
VH: LEQSGAEVKKPGSSVKVSCKASGDTFRSYVITWARQAPGQGLEWMGAIIPFFGTTNLAQKFQGRVTITADESTKTVYMDLSSLRSDDTAVYYCAKAGDLSVGGVLAGGVPHLRHFDPWGQGTLVTVSS
VL: ELTQSPGTLSLSPGERATLSCRAGQTVASNSLAWYQHKPGQAPRLLIYGASIRASGIPDRFSGSGSGTDFTLTISRLEPEDFAVYYCQQYGLSSTFGQGTRLEIKR
notes: also called IgG1 of Fab L4
B1: the “% residual binding” value in experiment [1] worked out at 77%; in [2] it was 97%; in experiment [3] it was 43%; in experiment [4] it was 138%; in [5] it was 118%; in experiment [6], 98%. The “% residual binding” value in experiment [7] turned out to be 92%; in [8] it was 15%; in [18], 13%; in [19], 138%; in experiment [20], 80%; in [21] it was 51%. Moreover, the “Neutralizing activity (IC50) on HCVpp” value in experiment [9] worked out at 10 µg/mL; in experiment [10], 5 µg/mL; in [11], 25 µg/mL; in experiment [12], 1 µg/mL; in [13], 50 µg/mL; in [14] it was 25 µg/mL. The “Neutralizing activity (IC50) on HCVpp” value in [15], in [16] and in experiment [17] was 1 µg/mL throughout. The “binding vs wild-type E1E2” value with H77 E1E2 mutant G530A came out at 24%; with H77 E1E2 mutant P484A, 90%.

B2: MAb AR3C (antibody, V domains shown)
VH: LEQSGAEVKKPGSSVKVSCETSGGTLDNYALNWVRQAPGQGLEWIGGVVPLFGTTRNAQKFQGRVTISDDKSTGTGHMELRSLRSEDTAVYYCVRSVTPRYCGGGFCYGEFDYWGQGTLVTVSS
VL: ELTQSPATLSVSPGERATLSCRASQSVSSNLAWYQQKPGQAPRLLIYGASTRATGIPARFSGSGSGTEFTLTVSRLEPEDSAVYFCQQYYRSPLTFGGGTKVEIKR
notes: also called IgG1 of Fab H3
In the case of B2, the “% residual binding” value in [22] was 92%; in experiment [1], 81%; in experiment [2], 99%; in experiment [3], 34%; in [4], 140%; in experiment [5], 124%. Moreover, the “% residual binding” value in [6] worked out at 116%; in experiment [7], 112%; in experiment [8], 12%; in experiment [18], 8%; in experiment [19], 145%; in experiment [20], 83%. Moreover, the “% residual binding” value in experiment [21] is 65%. Besides, the “Neutralizing activity (IC50) on HCVpp” value in experiment [9] stood at 1 µg/mL; in experiment [10] it was 5 µg/mL; in experiment [11], 10 µg/mL; in experiment [12], 1 µg/mL; in [13], 10 µg/mL; in experiment [14] it was 10 µg/mL. Moreover, the “Neutralizing activity (IC50) on HCVpp” value in experiment [15], in experiment [16] and in experiment [17] was 1 µg/mL in each case.

B3: MAb AR1A (antibody, V domains shown)
VH: LEQSGAEVKKPGSSVKVSCRASGSPYSSYTITWVRQAPGQGLEWMGGIILMTGKANYAQKFQGRVTITADRATATAYMEMSSLTSDDTAIYYCARDPYVYAGDDVRSLSRWGQGTPVIVSS
VL: not shown
notes: also called IgG1 of Fab B2
On to B3, for which the “% residual binding” value in experiment [22] came out at 71%; in [1], 84%; in experiment [2] it was 102%; in [3], 15%; in experiment [4], 91%; in [5] it was 85%. The “% residual binding” value turned out to be 82% in experiment [6]; 94% in experiment [7]; 53% in [8]; 37% in experiment [18]; 88% in experiment [19]; 84% in experiment [20]. The “% residual binding” value in experiment [21] came out at 83%. For the same molecule, the “Neutralizing activity (IC50) on HCVpp” value in [9], in [10], in [11], in experiment [12], in experiment [13] and in experiment [14] was greater than 50 µg/mL each time. For the same molecule, the “Neutralizing activity (IC50) on HCVpp” value in experiment [15] and in experiment [17] was greater than 50 µg/mL throughout. Further, the “binding vs wild-type E1E2” value with H77 E1E2 mutant G530A turned out to be 227%; in the experiment with H77 E1E2 mutant P484A, 38%.

B4: MAb AR1B (antibody, V domains shown)
VH: LESGGGLVQPGGSLRLSCEASGYYFSSFAMSWVRQTPGKGLEWVSSIAGGTLGRTSYRDSVKGRFTISRDNSKNTVFLHMNNLRPEDTAVYYCAKDPLLFAGGPNWFDHWGQGTLVTVSS
VL: not shown
notes: also called IgG1 of Fab D1
For B4, the “% residual binding” value turned out to be 92% in experiment [22]; 83% in experiment [1]; 106% in experiment [2]; 15% in experiment [3]; 99% in [4]; 93% in [5]. The “% residual binding” value in experiment [6] stood at 100%; in [7], 95%; in [8], 80%; in experiment [18], 66%; in experiment [19], 100%; in [20], 89%. In addition, the “% residual binding” value in experiment [21] is 98%. For the same molecule, the “Neutralizing activity (IC50) on HCVpp” value in experiment [9], in experiment [10], in experiment [11], in experiment [12], in experiment [13] and in [14] was greater than 50 µg/mL throughout. Besides, the “Neutralizing activity (IC50) on HCVpp” value in experiment [15] and in [17] was greater than 50 µg/mL each time. Further, the “binding vs wild-type E1E2” value worked out at 50% in the experiment with H77 E1E2 mutant G530A and 45% with H77 E1E2 mutant P484A.
